Positions count from the first letter of the chain named.

The text below walks through data of patent publication US20210356479A1 (BLOODWORKS, published 2021).

The target of assay [1] is T1, human Kell glycoprotein, K form (KEL1) (human, UniProt P23276 1-732).
T1 construct: whole, on cells; On human K/K or K+k+ RBCs and on RBCs of K transgenic mice; also called K antigen; K variant
T1 sequence (looked up): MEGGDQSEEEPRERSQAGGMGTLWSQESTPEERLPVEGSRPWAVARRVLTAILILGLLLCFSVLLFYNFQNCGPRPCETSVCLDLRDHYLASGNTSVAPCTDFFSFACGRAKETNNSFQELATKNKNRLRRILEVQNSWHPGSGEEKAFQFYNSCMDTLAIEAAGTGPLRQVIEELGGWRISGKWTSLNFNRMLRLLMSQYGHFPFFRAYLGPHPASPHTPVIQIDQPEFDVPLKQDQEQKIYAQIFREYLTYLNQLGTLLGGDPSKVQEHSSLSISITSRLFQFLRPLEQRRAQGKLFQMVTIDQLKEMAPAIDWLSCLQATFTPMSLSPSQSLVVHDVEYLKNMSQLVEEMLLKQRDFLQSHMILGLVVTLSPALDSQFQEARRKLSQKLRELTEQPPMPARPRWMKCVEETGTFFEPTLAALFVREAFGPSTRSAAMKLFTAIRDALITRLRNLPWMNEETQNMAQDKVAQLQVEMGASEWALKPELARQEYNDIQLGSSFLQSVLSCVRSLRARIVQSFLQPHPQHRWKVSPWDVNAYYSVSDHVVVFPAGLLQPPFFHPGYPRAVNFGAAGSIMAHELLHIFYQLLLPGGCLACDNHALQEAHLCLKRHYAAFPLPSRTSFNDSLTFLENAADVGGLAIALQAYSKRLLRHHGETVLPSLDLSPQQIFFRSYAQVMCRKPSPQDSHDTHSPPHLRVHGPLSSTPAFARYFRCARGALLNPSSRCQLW
The experiment in a line: flow cytometry on K transgenic mouse RBCs. (In flow cytometry, cells or beads pass a laser one at a time.)

Assay [2] concerns the target T2, human Kell glycoprotein, k form (KEL2) (human, UniProt P23276 1-732).
T2 construct: whole, on cells; On human k/k or K-k+ RBCs; also called k antigen
T2 sequence (looked up): T1 sequence (looked up) with M193T
Kind of assay: flow cytometry, indirect immunofluorescence on k/k human RBCs. The procedure:
(§1) The specificities of the antibodies were determined to be: PUMA ½ (KEL1 or K), PUMA 3 (a common Kell epitope, PUMA 4 (KEL4 or Kp^b). Flow cytometry was utilized to test antibody specificity by indirect immunofluorescence, using the monocolonal antibodies as the primary reagent and a goat-anti-mouse antibody (conjugated to allophycocyanin) as a secondary antibody. Different target cells expressing different Kell variants were used to determine specificity. Targets included RBCs that phenotyped as homozygous for the 3 main antithetical antigens in the Kell system, K/K, k/k, Kp^{b/}Kp^b, Kp^{a/}Kp^a. Js^{b/}J^b, Js^{a/}Js^a. Differential binding to such tarets tests specificity. In the case of PUMA ½, binding was only observed when K was present but not on k/k RBCs. In the case of PUMA 3, binding was observed on all RBCs regardless of phenotype for K/k, Kp^{a/}Kp^{b,} or Js^{a/}Js^b, thus indicating a common epitope outside these systems. However, PUMA 3 bound to only KELL glycoprotein transgenic murine RBCs and not wild-type murine RBCs; thus, the epitope recognized by PUMA 3 is on the KELL molecule, but not K/k, Kp^{a/}Kp^b, or Js^{a/}Js^b. For PUMA 4, binding was only observed when Kp^b was present but not on Kp^{a/}Kp^a RBCs.

In assay [3] the target is T1, human Kell glycoprotein, K form (KEL1). The experiment in a line: flow cytometry, indirect immunofluorescence on K/K human RBCs. The procedure:
as §1

For assay [4], the target named is T3, human Kell glycoprotein, Js^b form (KEL7) (human, UniProt P23276 1-732).
T3 construct: whole, on cells; On human Js^b/Js^b RBCs
T3 sequence (looked up): T1 sequence (looked up) with M193T
The experiment in a line: flow cytometry, indirect immunofluorescence on Js^b/Js^b human RBCs. The procedure:
as §1

The target of assay [5] is T4, human Kell glycoprotein, Kp^b form (KEL4) (human, UniProt P23276 1-732).
T4 construct: whole, on cells; On human Kp^b/Kp^b RBCs
T4 sequence (looked up): T1 sequence (looked up) with M193T
The experiment in a line: flow cytometry, indirect immunofluorescence on Kp^b/Kp^b human RBCs. The procedure: as §1

B1: PUMA 1 monoclonal anti-K antibody (antibody, mouse IgG2a, V domains shown)
VH: EVQLQQSGPELVKPGASVKMSCKASGYTFTDYYMKWVKQSHGKSLEWIGDLNPNNGDTFYNQKFKGKATLTVDKSSSTAYIQLNSLTSEDSAVYYCAREAGSSFGSSCNYWGQGTTLTVS
VL: SVVMTQTPKFLLVSAGDRVTITCKASQTVSKDVAWYQQQPGQSPKLLIYYASNRYTGVPDRFTGSGYGTDFTFTISTVQAEDLAVYFCQQDYSSPYTFGGGTKLEIK
notes: also called PUMA 2; PUMA ½
Turning to B1, the values for the binding result in assay [1] and in assay [2] were “binds” and “no binding”, respectively.

B2: PUMA 3 monoclonal antibody (antibody, V domains shown)
VH: QVQLKESGPGLLAPSQSLSITCTVSGFSLTSYGVYWVRQPPGKGLEWLGIIWGDGSTNYQSVLRSRLSITKDDSKSQVFLKLNSLQTDDTATYYCAKRGDYDVAYWGQGTLVTVSA
VL: DIVLTQSPASLAVSLGQRAIISCKASQTVSEVGTSLMHWYQQRPGQQPKLLIYRTSNLEAGVPTRFSGSGSRTDFTLNIHPVEEDDAATYYCQQSREFPWTFGGGTRLEIK
notes: Mouse monoclonal from hybridoma
On to B2, for which the binding result in assay [3], in assay [2], in assay [4] and in assay [5] was “binds” each time.
